# Measured values from paper PMC7966800, “Adiponectin-expressing Treg facilitate T lymphocyte development in thymic nurse cell complexes” (Communications Biology, 2021).
# “And” between values parts separate entries of the source, which are not always exact repeats. Identical values can stand only once.
# B1: Adiponectin (natural protein, mouse (endogenous in thymus), UniProt Q60994 18-247, looked up)
# chain: EDDVTTTEELAPALVPPPKGTCAGWMAGIPGHPGHNGTPGRDGRDGTPGEKGEKGDAGLLGPKGETGDVGMTGAEGPRGFPGTPGRKGEPGEAAYVYRSAFSVGLETRVTVPNVPIRFTKIFYNQQNHYDGSTGKFYCNIPGLYYFSYHITVYMKDVKVSLFKKDKAVLFTYDQYQEKNVDQASGSVLLHLEVGDQVWLQVYGDGDHNGLYADNVNDSTFTGFLLYHDTN
# notes: adiponectin, mouse, endogenous protein of thymus and thymic nurse cell (TNC) complexes; found as trimer, hexamer and HMW oligomers; Endogenous secreted glycoprotein; detected with a polyclonal antibody against murine adiponectin; also called Adn; ADIPOQ; source: endogenous, thymus tissue and TNC complexes of wild-type mice, in lysate
# Biological target: the molecule itself
# Test: non-reducing SDS-PAGE with Western blotting; thymus lysate of WT mice; non-reducing SDS-PAGE, polyclonal antibody to murine adiponectin
protein,measurement,value
B1,stoichiometry N,3 and 6
